Experimental data taken from the supplement of paper PMC9170038.

Test system: MS2 coat protein
Assay: apparent KD of MS2 coat protein; designed switch direction (-1 OFF switch, 1 ON switch): 1; higher = weaker reporter binding
Procedure, shortened: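 Designed RNA switches sharing common flanks were transcribed on Illumina chips by stalled E. coli RNA polymerase. They were titrated with SNAP-549-labelled MS2 coat protein, from 0.7 or 1.5 nM doubling to 3 µM, in Tris-HCl pH 7.5 buffer with KCl, MgCl2, BSA, DTT, tRNA and Tween-20. Titrations ran without input, with 200 uM small-molecule ligand, or with an oligonucleotide input. The apparent KD of each design is the median over its clusters, after curve-fitting of normalised cluster fluorescence.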

[1] = input ligand: microRNA oligo, concentration not stated
[2] = Eterna round: R95, input ligand: FMN 200 uM
[3] = Eterna round: R95, input ligand: microRNA oligo, concentration not stated
[4] = Eterna round: R95, input ligand: none

Sequence | apparent KD of MS2 coat protein [1] [nM] | apparent KD of MS2 coat protein [2] [nM] | apparent KD of MS2 coat protein [3] [nM] | apparent KD of MS2 coat protein [4] [nM] | apparent KD of MS2 coat protein (input ligand: FMN 200 uM) [nM] | apparent KD of MS2 coat protein (input ligand: none) [nM]
GUGCUCGUGUGAGGAUAUGCCGCCGUUUCGGCUGCAGAAGGUGCUACGUUACAUGAGGAUCACCCAUGUCUCUGUUGUUUCGUG [salish99_SSNG1_r04_943] (Eterna round: R96, puzzle: Same State NG 1) | 17.9 | – | – | – | – | –
AGUCCAGCCUGAGCUGGACAAAAGCAUGUACAUGAGGAUCACCCAUGUUCAUGUACAGGCUUUUUGCUCGUCUUAAA [Zipper 52 - 7] (puzzle: Sensor for hsa-mir-208a) | – | 331 | 17.8 | 488 | – | –
AAGUUAAGCUUUUUGUUCUGCCUAUUCUAACAUGAGGAUCACCCAUGUAGUCAGACGACUGCGUGUGUAGUUGAGAU [JR_SHM208A_Sub029] (puzzle: Sensor for hsa-mir-208a) | – | 121 | 194 | 111 | – | –
ACUUAGUACAAUUUAGAUCUACAUGAGGAUCACCCAUGUACUGAGGAUAUCAGCUCGUUUAGAGCUGAGAAGGCAGUAGUACUA [SSNG3/9-A3] (Eterna round: R96, puzzle: Same State NG 3) | 26.2 | – | – | – | 46.7 | 61.9
AUCAAAACAAGUUGCAGUGUUCGUCUUUCACAUGAGGAUCACCCAUGUAAUAGCCCAGUGGAAGCGCUCGGGCUACC [Esgevexe] (puzzle: Sensor for hsa-mir-208a) | – | 38.7 | 25.6 | 47.9 | – | –
GUGGUCAGACAUGAGGAUCACCCAUGUGGAAUAAAUAAGGUUUAGGAUAUGGAAUAUAGGAUAUACCAGAAGGAAGGGUUGGUG (Eterna round: R96, puzzle: Same State NG 3) | 95.2 | – | – | – | – | –
CGCGGCAAGGAAGGAUAUGGGACGAAAACGUACCUAGAAGGUCCACAUGAGGAUCACCCAUGUACCAAGAAAACCGCUAAAUUA [Atceorer] (Eterna round: R96, puzzle: Same State NG 1) | 177 | – | – | – | 70.7 | 207
AAAGAAAACAUAGGAUAUGUAACAUGAGGAUCACCCAUGUAUACCUCGUAAGAGAUGAUGGAUGGACAGAAGGAUGAUCUCAGG [Default title] (Eterna round: R96, puzzle: Same State NG 2) | 111 | – | – | – | – | –
GGUCCAGCCUGAGCUGGACAAGAGCAUGUACAUGAGGAUCACCCAUGUCAUGUACAAGCUUUUUGCUCGUCUUAAAA [JL mod - D87 - 2] (puzzle: Sensor for hsa-mir-208a) | – | 433 | 14.5 | 540 | – | –
UGGAUCUAGGCUUGCCUGGGUCCAUGUUGACAUGAGGAUCACCCAUGUGUAUUUUAUAAGCUUUUUGUUUGUCAACA [JL A Humble Attempt mod 7] (puzzle: Sensor for hsa-mir-208a) | – | 37 | – | 37.6 | – | –
GUAAUAAUGUAAGGAUAUACAUGAGGAUUUCUCGUAGAAGGUACAAGACAUGAGGAUCACCCAUGUGUCGCUCAGAAGAGCGUA [Mat - Same State NG 1 - JL mod - D16] (Eterna round: R96, puzzle: Same State NG 1) | 158 | – | – | – | 279 | 463
UUGCUCGUGUGAGGAUAUGCCGCCGUUUCGGCUGCAGAAGGUGCUACGUUACAUGAGGAUCACCCAUGUCUCUGUUGUUUCGUG [salish99_SSNG1_r04_941] (Eterna round: R96, puzzle: Same State NG 1) | 19.7 | – | – | – | 17.5 | 21.1
UGGAUGGUGAUAGGAUAUACAUGAGGAAUCCUCGUAGAAGGAUCACGACAUGAGGAUCACCCAUGUAGCCGUCCGUAGACGGCU [salish99_SSNG1_r04_004] (Eterna round: R96, puzzle: Same State NG 1) | 122 | – | – | – | 478 | 711
CAGCGCUGUCGAGAGGAUAUGCGGUGAUGGACAUGAGGAUCACCCAUGUUAGCGACAGCAUUACGGUAGAAGGCUUCACAGCUGC [Soteed Omei mod 15] (puzzle: Same State 2) | – | 61 | 33.3 | 41.8 | – | –
GUGGAGGGUUGAGGAUAUUGAUUACAUAUGUUUAACAUGAGGAUCACCCAUGUGGGUUGCGGUUUCGAGAAGGUAGGUUGCUGG [salish99_SSNG2_r04_041] (Eterna round: R96, puzzle: Same State NG 2) | 79.5 | – | – | – | 196 | 132
AGCAUACAUGAGGAUCACCCAUGUCAACGUAGUCGAGGAUAUGGGCAGCCGUGAGGCGAACCAGAAGGCGAAUUGA [Mat - Same State 1 - Mod of JL - D3] (puzzle: Same State 1) | – | 23.7 | 34.6 | 38.9 | – | –

Sequence | apparent KD of MS2 coat protein [1] [nM] | apparent KD of MS2 coat protein [2] [nM] | apparent KD of MS2 coat protein [3] [nM] | apparent KD of MS2 coat protein [4] [nM] | apparent KD of MS2 coat protein (input ligand: FMN 200 uM) [nM] | apparent KD of MS2 coat protein (input ligand: none) [nM]
UUAAUAAAGUAAGGAUAUACAUGAGGAUCACUCGUAGAAGGUACUAAACAUGAGGAUCACCCAUGUACCGGUCCGUAGACUGGA [Mat - Same State NG 1 - JL mod - D1] (Eterna round: R96, puzzle: Same State NG 1) | 108 | – | – | – | 844 | 364
UUUGGGUGGCUGGAGGAUAUUCGAGUGGUUACAUGAGGAUCACCCAUGUGUCGCGCGGUACACGAGGAGAAGGCUGGCGGCCGUU (puzzle: Same State 2) | – | – | 37.7 | – | – | –
GCUAGAAUUAAAGCCAACAUGAGGAUCACCCAUGUAUGUUGGUAGGAUAUCGUUUGCUUUGCAAACGAGAAGGGCCAAACUAGC [JL SSNG3 1.07] (Eterna round: R96, puzzle: Same State NG 3) | 142 | – | – | – | 64.7 | 111
GGAGCCAAGGCAGGAUAUUCAUUAUAAAUAACAUGAGGAUCACCCAUGUUGGCCAGAAGGCCAUGGGAGAAGGGCCAUGGCUCG [Xeonanis - 13 mod24] (Eterna round: R96, puzzle: Same State NG 2) | 73.7 | – | – | – | 17.7 | 105
UUGGGUUUGCGAGGAUAUCGUAUGUGAUUUGAACGAGAAGGCGCUAUUUAAAUUAUUUUAACAUAACAUGAGGAUCACCCAUGU [JR_SSNG1_Sub021] (Eterna round: R96, puzzle: Same State NG 1) | 14.2 | – | – | – | – | –
AGUCCAGCCUGAGCUGGACUGAAGCAUGUACAUGAGGAUCACCCAUGUUCAUGUGCAAGCUUUUUGCUCGUCUUAUG [JL-shm-2.03 JL mod] (puzzle: Sensor for hsa-mir-208a) | – | 42 | 11.5 | 41.8 | – | –
GUUAUACAUGAGGAUCACCCAUGUCAAUGUAGUCGAGGAUAUGGGUAGCUAUGAGGCGUACUAGAAGGCGAGGAGU [JL-ss1-3.16 ViennaUCT mod] (puzzle: Same State 1) | – | – | 90.4 | – | – | –
UCGGGCUCUGCUCGUCUUGAGUUGCUCCCACAUGAGGAUCACCCAUGUAGUGUGCCUAUCAGCGCGCGGGUGACUUU [Riesonso] (puzzle: Sensor for hsa-mir-208a) | – | 328 | 133 | 350 | – | –
AGAAAACAUGAGGAUCACCCAUGUAGAAAUAUGGGAGGAUAUACAAAGACGAAAGUCAGAGUAGAAGGCCUAAAAA [salish99-SS1-085] (Eterna round: R96, puzzle: Same State 1) | 46.6 | – | – | – | – | –
GCUCAUAGUAUAUGGGUACAAGCUUUUUGACAUGAGGAUCACCCAUGUACUCGUCUUAUGUGCAGUCCGUAGACUGC [JL-shm-2.21 Brourd mod] (puzzle: Sensor for hsa-mir-208a) | – | 104 | 17.3 | 137 | – | –
AGUAAGAGUCAAGGAUAUGCUACCGUUUCGGUAGCAGAAGGUGAUCACAUGAGGAUCACCCAUGUAUAAAUGCGUGAGCGUGCU [JL SSNG1 3.63] (Eterna round: R96, puzzle: Same State NG 1) | 28.2 | – | – | – | 679 | 59
CAGCGCUGUCGAGAGGAUAUGCGGUGAUGGACAUGAGGAUCACCCAUGUUAGCGACAGCAUCACGGCAGAAGGCUCUACCGCUGC [Soteed Omei mod 18] (Eterna round: R96, puzzle: Same State 2) | 24.1 | – | – | – | 19.9 | 60.7
UAUUUAAUCAUAGGAUAUAGUGUGUAAUUUGGACUAGAAGGAUGUAACAUGAGGAUCACCCAUGUGGUAAAUGGGAUACAUUCC [JR_SSNG1_Sub099] (Eterna round: R96, puzzle: Same State NG 1) | 91.9 | – | – | – | – | –
ACGCAAAAUGGAGGAUAUGGAGCCUUAUUGGCUCCAGAAGGUCAAAACAUGAGGAUCACCCAUGUGCGGUGGUCUAAUGACCAC [Eli NG1ss - 46] (Eterna round: R96, puzzle: Same State NG 1) | 109 | – | – | – | 41.5 | 172
CGUCCAGCCUGAGCUGGACAAAAGCAUGUACAUGAGGAUCACCCAUGUUCAUGUACAAGCUUUUUGCUCGUCUUACA [salish99_208a_r3_091x] (puzzle: Sensor for hsa-mir-208a) | – | 691 | 16.2 | 695 | – | –
UGGCCAGCCUGUGCUGGGCUUUAGCAUGUACAUGAGGAUCACCCAUGUCGUGUACAUGCUUUUUGCUCGUCUUUAAA [Photon Torp-06] (puzzle: Sensor for hsa-mir-208a) | – | 35.8 | 23.1 | 125 | – | –
